In PMC12846365 (2026):

Key:
[1] = target: 48d IC as analyte in SPR (non-crosslinked control) (HIV-1 strain BG505, UniProt Q2N0S6); test: SPR
[2] = target: 48d.cl IC as analyte in SPR (Fab-Fab-crosslinked [change]) (HIV-1 strain BG505, UniProt Q2N0S6); test: SPR

B1: 2mutVRC01 (antibody, V domains shown)
VH: QVQLVQSGGQMKKPGESMRISCRASGYEFIDCTLNWIRLAPGKRPEWMGWLKPRGGAVNYARPLQGRVTMTRDVYSDTAFLELRSLTVDDTAVYFCTRGKNCDYNWDFEHWGRGTPVIVSS
VL: EIVLTQSPGTLSLSPGETAIISCRTSQYGSAALAWYQQRPGQAPRLVIYSGSTRAAGIPDRFSGSRWGPDYNLTISNLESGDFGVYYCQQYEFFGQGTKVQVD
- Kd [1]: 0.81 nM
- koff [1]: 0.00031 s⁻¹
- Kd [2]: 0.52 nM
- koff [2]: 0.00012 s⁻¹
